These results are taken from publication PMC12401731.

For assay [1], the target named is HIV-1 RT p66 with TEV-cleavable N-terminal His tag (HTp66) (HIV-1). Briefly: mass photometry.
Assay [2] has the same target. Put plainly: cross-linking + other: mass photometry.
The target in another assay is HTp66 K259A (HIV-1). Put plainly: mass photometry.

The substance “HIV-1 RT p66 with TEV-cleavable N-terminal His tag (HTp66) (enzyme)” gave a percent dimer at 500 nM JLJ648 in assay [1] of 58%. In assay [2], the percent of the population as dimer was determined as 26%.
In the assay with HTp66 K259A (HIV-1), HTp66 K259A (enzyme) had a percent dimer at 500 nM JLJ648 of 52%.
